How the values were obtained:
APEG-1 (Homo sapiens) = APEG-1 (Homo sapiens) (UniProt Q15772); test: analytical ultracentrifugation (sedimentation equilibrium)
[1] = molecular target: Aortic Preferentially Expressed Protein-1 (APEG-1), full-length construct (2-113) (human); test: AUC; sedimentation equilibrium, dimer to monomers; 15 mM Tris-HCl pH 7.4, 0.1 M NaCl, 0.1 mM EDTA, 0.2% NaN3, 10°C; Kd from concentration-dependent Mw
[2] = molecular target: ΔAPEG-1, truncated Aortic Preferentially Expressed Protein-1 (15-113) (human); test: AUC; sedimentation equilibrium, dimer to monomers; 0 mM NaCl (salt series)
[3] = molecular target: ΔAPEG-1, truncated Aortic Preferentially Expressed Protein-1 (15-113) (human); test: AUC; sedimentation equilibrium, dimer to monomers; 15 mM Tris-HCl pH 7.4, 0.1 M NaCl, 0.1 mM EDTA, 0.2% NaN3, 10°C; Kd from concentration-dependent Mw

Sequence of Aortic Preferentially Expressed Protein-1 (APEG-1), full-length construct (2-113) (natural protein) (Q15772 2-113): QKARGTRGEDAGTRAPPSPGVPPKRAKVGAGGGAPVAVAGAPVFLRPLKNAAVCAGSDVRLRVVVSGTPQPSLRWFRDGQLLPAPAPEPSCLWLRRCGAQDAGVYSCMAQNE

## APEG-1, Q15772
APEG-1 (Homo sapiens)
  Kd: 2 µM

## Aortic Preferentially Expressed Protein-1 (APEG-1), full-length construct (2-113) (natural protein)
[1]
  Kd: 20 µM
  stoichiometry N: 2

## ΔAPEG-1, truncated Aortic Preferentially Expressed Protein-1 (15-113) (domain or fragment)
[2]
  Kd: 2 to 200 µM
[3]
  Kd: 20 µM
  stoichiometry N: 2

— paper PMC1352370
